Assay results as given in PMC5583966, “Sustained-release study on Exenatide loaded into mesoporous silica nanoparticles: in vitro characterization and in vivo evaluation” (DARU Journal of Pharmaceutical Sciences, 2017).

Experiments:
[1] = Pharmacokinetics study after s.c. injection in SD rats; type: in vivo
Description: Pharmacokinetic studies of EXT-Sol and EXT-SBA-15 were conducted in healthy male SD rats. Sixteen rats were randomly divided into two groups (n = 8) and fasted overnight with free access to water before administration. SD rats were received s.c. administration of EXT-Sol and EXT-SBA-15 at a single EXT dose of 50 μg/kg, respectively. The blood samples (0.5 mL) of EXT-Sol treatment group were collected from the rat’s orbit and at specific time 0, 0.25, 0.5, 1, 1.5, 2, 3, 4, 6, 8 h after injection. The blood samples (0.5 mL) of EXT-SBA-15 treatment group (0.5 mL) were collected at 0, 0.5, 1, 1.5, 2, 3, 5, 8, 12, 24, 36, 48, 72, 120 h. The collected blood samples were centrifuged at 503×g for 10 min to obtain the plasma, which were stored at −80 °C for further analysis. The plasma concentrations of EXT were measured by Exendin-4 ELISA kit according to the instructions supplied by the manufacturer. The relevant pharmacokinetic parameters were analyzed by PKSolver 2.0 [25].

[2] = tested on: STZ-induced type 2 diabetic ICR mice (blood glucose); assay: In vivo pharmacodynamics study: blood glucose of STZ-induced type 2 diabetic mice; conditions: s.c., EXT 3 μg/kg/d twice daily, days 0-25, measured before administration, n = 6
Description: Type 2 diabetes model was induced by STZ with multiple injection method into ICR mice. Each mouse was injected intraperitoneally with 30 mg/kg⋅d STZ in 0.1 mol/L citric acid buffer (pH 5.0). One week after the injection, mice were fasted for 12 h (with free access to water) before their blood glucose was measured by glucometer (Accu-Chek Performa, Germany). Diabetic mice were considered by fasting blood glucose above 11.1 mmol/L. Six healthy normal ICR mice were used as the blank control group (A). Twenty-four mice that had developed type 2 diabetes were randomly divided into four experimental groups and received s.c. administration of saline (B), EXT-Sol (C), EXT-SBA-15 (D) and SBA-15 (E), respectively. Group A and B received saline twice daily via s.c. administration. Group C received EXT-Sol twice daily with a dose of EXT (3 μg/kg/d). Group D and E were administrated a single injection of EXT-SBA-15 (600 μg/kg) and SBA-15 via s.c. administration, respectively. The blood sample (about 0.2 ml) was collected from the tail-vein on days 0, 1, 5, 10, 15, 20, 25 for all groups, and blood glucose levels were determined measured simultaneously with a glucometer before administration.

[3] = single EXT dose 50 μg/kg, plasma, Exendin-4 ELISA, Mean ± SD, n = 8
[4] = single EXT dose 50 μg/kg, plasma, Exendin-4 ELISA, two-compartment model, Mean ± SD, n = 8

EXT-Sol: Exenatide (EXT) solution, injected s.c. as comparator
time at which plasma concentration had decreased to baseline ([1]; EXT dose 50 μg/kg): 8 h
AUC0→t [1, 3]: 1.71 ± 0.07 ng⋅ml^−1⋅h
AUC0→∞ [1, 3]: 1.71 ± 0.07 ng⋅ml^−1⋅h
MRT mean residence time [1, 3]: 68.4 ± 4.2 min
c max peak concentration [1, 3]: 1.16 ± 0.09 ng⋅ml^−1
t 1/2(α) half-life of distribution [1, 4]: 13.2 ± 1.8 min
t 1/2(β) half-life of elimination [1, 4]: 36 ± 4.8 min
long-term glucose lowering effect, up to 25 days [2]: not observed
